Measured values as given in patent US20090005294A1 (CENTRO DE INGENIERIA GENETICA Y BIOTECNOLOGIA, published 2009).
Bridges are numbered along the chain shown (N, C = ends). Where no end group is shown, it is not given here.

T1: CKII substrate peptide RRREEETEEE (optimized consensus domain for CKII phosphorylation)
T1 peptide: RRREEETEEE

B1: cyclic peptide (h) CPLVSLRDHSC (peptide)
peptide: CPLVSLRDHSC
modifications: disulfide 1-11 (inferred)
B2: cyclic peptide (a) CSVRQGPVQKC (peptide)
peptide: CSVRQGPVQKC
modifications: disulfide 1-11 (inferred)
B3: cyclic peptide (j) CFQPLTPLCRC (peptide)
peptide: CFQPLTPLCRC
modifications: disulfide 1-11
B4: cyclic peptide (k) CQSYHELLLQC (peptide)
peptide: CQSYHELLLQC
modifications: disulfide 1-11 (inferred)
B5: cyclic peptide (e) CWMSPRHLGTC (peptide)
peptide: CWMSPRHLGTC
modifications: disulfide 1-11 (inferred)
B6: cyclic peptide (d) CAKQRTDPGYC (peptide)
peptide: CAKQRTDPGYC
modifications: disulfide 1-11 (inferred)
B7: cyclic peptide (g) CHYIAGTVQGC (peptide)
peptide: CHYIAGTVQGC
modifications: disulfide 1-11 (inferred)
B8: cyclic peptide (c) CQIPQRTATRC (peptide)
peptide: CQIPQRTATRC
modifications: disulfide 1-11 (inferred)
B9: cyclic peptide (b) CSSCQNSPALC (peptide)
peptide: CSSCQNSPALC
modifications: disulfide 1-11
B10: cyclic peptide (f) CRNCTVIQFSC (peptide)
peptide: CRNCTVIQFSC
modifications: disulfide 1-11
B11: cyclic peptide (i) CKQSYLHHLLC (peptide)
peptide: CKQSYLHHLLC
modifications: disulfide 1-11 (inferred)

Target: T1, CKII substrate peptide RRREEETEEE …
Assay: cell-based or functional assay

Row | Binder | inhibition of CKII phosphorylation of the substrate peptide (32P, cpm on filters)
1 | B1 | 80%
2 | B2 | 80%
3 | B3 | 80%
4 | B4 | 80%
5 | B5 | 80%
6 | B6 | 80%
7 | B7 | 80%
8 | B8 | 80%
9 | B9 | 80%
10 | B10 | 80%
11 | B11 | 80%
